{
  "source": "patent US9657092B2",
  "about": "“S100A4 antibodies and therapeutic uses thereof” (LYKERA BIOMED SA, priority 2010, dated 2017)",
  "key": {"[1]": {"biological_target": "T1, Human S100A6 (Homo sapiens, UniProt P06703)", "T1 construct": "purchased Abnova", "experiment": "ELISA specificity (reaction pattern of mAb)", "type": "binding", "set-up": "key: ++++ positive reaction; − no reaction"}, "[2]": {"biological_target": "Human S100A4 (Homo sapiens, UniProt P26447)", "sequence (P26447 whole entry)": "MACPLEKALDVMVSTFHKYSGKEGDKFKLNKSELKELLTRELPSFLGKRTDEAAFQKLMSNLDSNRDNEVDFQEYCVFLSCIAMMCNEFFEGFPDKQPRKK", "experiment": "Western-blot of cell and tumor extracts", "type": "binding", "set-up": "Levels of S100A4 expression in total extracts from tumor cell lines of different origins; endogenous in cells; host or cells: human tumour cell lines (MiaPACA-2, Panc1, BxPC3, Colo 205, MDA-MB-231 and others) and xenograft tumours from HCT116, MiaPACA-2, BxPC3", "conditions": "denaturalized protein, reduced conditions", "description": "Cell and tumors samples were rinsed twice with PBS and immediately lysed with ice cold Cell Lysis Buffer (150 mM NaCl, 1% IGEPAL CA630, 5 mM EDTA, 100 μg/mL PMSF, 1 mM Na3VO4, 1 mM NaF and 50 mM Tris pH 7.4). Lysates were cleared by centrifugation and the protein concentration was quantified with the Bradford reagent (Bio-Rad). Total extracts (50 μg) were resolved in a 12% SDS-polyacrilamide gel (PAGE) electrophoresis under reduced conditions and transferred to BioTrace™ PVDF membranes (PALL corporation). Membranes were blocked for 1 hour in TBS plus 0.1% Tween-20 with 5% skimmed dried milk, incubated overnight with the relevant primary antibody and then with the secondary antibodies for 1 hour in blocking buffer, washing three times for 10 min in TBS plus 0.1% Tween-20 after each incubation. Signals were developed using the ECL™ Western Blotting Detection Reagents (Amersham) and exposed to Hyperfilm™ ECL (Amersham)."}, "[3]": {"system": "MMP9 proteolytic activity induced by S100A4", "experiment": "Gelatin zymography of HUVECs conditioned media", "type": "cell-based, human", "conditions": "1-2 μM antibody with S100A4 1 μM, 24 h", "description": "HUVECs were grown in EBM plus supplements (EGM) and 10% FCS, in 24-well culture plates. Before stimulation, cells were maintained 4 hours in EBM in the absence of serum or other supplements. Then, S100A4 (0.3-1-3 μM), in EBM were added to the culture to analyze their capacity to increase the secretion of active forms of matrix metalloproteinases (MMPs). […] After 24 hours at 37° C., supernatants were centrifuged to remove the debris. Then, 10 μL of Laemmli sample buffer without reducing agent (80 mM Tris-HCl pH 6.8, 4% SDS, 10% glycerol, 0.01% bromophenol blue) was added to 10 μl of each of the clear supernatants that were loaded without boiling in a 8% SDS-polyacrylamide gel copolymerized with Type A gelatine from porcine skin (Sigma) at a final concentration of 1 mg/mL. After electrophoresis, SDS was removed by washing the gel three times for 15 minutes with 2.5% Triton X-100 in H2O. […] Staining was performed for 1 hour at RT with 0.1% naphthol amido black (Sigma) in acetic acid, methanol and water at a proportion of 1:3:6 in volume. Then, gels were washed with destaining solution until clear bands were observed over a dark background. Bands were quantified using the NIH ImageJ imaging software."}, "[4]": {"system": "HCT116 tumors", "experiment": "HCT116 subcutaneous xenograft tumor development", "type": "in vivo, nude mice", "conditions": "HCT116, end of experiment (day 21)", "description": "MiaPACA-2 human pancreatic adenocarcinoma cell line and HCT116 human colorectal adenocarcinoma cell line in exponential growth were harvested with trypsin-EDTA (0.05%/0.02%) (Invitrogen), washed, and examined for viability by trypan blue dye exclusion. Viability was greater than 95%. For primary tumor growth, cells (either 5×10^6 or 1×10^6 cells for MiaPACA-2 or HCT116 respectively in 0.1 mL DMEM high glucose) were subcutaneously injected into the flanks of nude mice. Tumor volumes between 65-160 mm^3 for MiaPACA-2 and volumes between 155-370 mm^3 for HCT116 were used to divide the mice into two groups of either ten mice each (MiaPACA-2) or seven mice each (HCT116), such that the mean tumor size was equal between groups (approximately 100 mm^3 for MiaPACA-2 or 220 mm^3 for HCT116). Tumor growth was followed by measuring tumor diameters with calipers and the tumor volume was calculated using an approximated formula for a prolate ellipsoid: volume=(D×d^2)/2 where D is the longest axis of the tumor and d the shortest. Mice were treated either with vehicle (PBS) or with the antibody, i.p. three times per week at 25 mg/Kg/100 μL of sterile PBS, starting the treatment at defined tumor volume (100 mm^3 and 220 mm^3). […]"}, "[5]": {"system": "circulant S100A4 protein in plasma", "experiment": "Plasma quantification of S100A4 by sandwich ELISA in xenograft tumor models", "type": "in vivo, athymic mice", "conditions": "MiaPACA-2 and HCT116 xenograft tumor model, end of experiment", "description": "Plasma levels of S100A4 were quantified by sandwich ELISA method. […] After removing the coating, plates were washed twice with PBS and incubated 1 h at 37° C. in blocking buffer (PBS containing 1% of skimmed milk).\nPlasma samples diluted 1:4 in dilution buffer (PBS-4% BSA) were applied to the wells (100 μl/well) and were incubated 2 h at 37° C. Plates were washed eight times with washing buffer (PBS-0.1% of Tween-20) and Rabbit polyclonal anti-S100A4 secondary antibody (Dako) at the appropriate dilution was applied to the wells (100 μl/well) and were incubated for 1 h at 37° C.\nPlates were washed eight times with washing buffer and Goat anti-Rabbit-IgG-peroxidase conjugated (Sigma) at the appropriate dilution was added to each well (100 μl/well) and were incubated 1 h at 37° C. […] Absorbance was ridden at 450 nm.\nStandard curve for basal plasma samples (animals without tumor), was obtained by serial dilutions of murine recombinant S100A4 in dilution buffer. Standard curve for final plasma samples (animals with tumor at the end of the experiment) was obtained by serial dilutions of human recombinant S100A4 in dilution buffer."}, "[6]": {"biological_target": "T2, Human S100A7 (Homo sapiens, UniProt P31151)", "T2 construct": "made in house", "T2 sequence (P31151 1-101)": "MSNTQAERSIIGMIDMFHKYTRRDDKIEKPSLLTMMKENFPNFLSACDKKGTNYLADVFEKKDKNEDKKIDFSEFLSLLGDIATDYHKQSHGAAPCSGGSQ", "experiment": "ELISA specificity (reaction pattern of mAb)", "type": "binding", "set-up": "key: ++++ positive reaction; − no reaction"}},
  "data": [
    {"molecule": "5C3: mouse monoclonal anti-S100A4 antibody, IgG1, from hybridoma ECACC 10022401; VL SEQ ID NO: 1, VH SEQ ID NO: 2 (antibody, V domains shown, VH region of the 5C3 monoclonal antibody; VL region of the 5C3 monoclonal antibody) VH: EAQLQQSGAELVKPGASVKLSCTASGFNIQETYMHWVKQRPEQGLEWIGRIDPANGNTKDDPKFQGKASITVDTSSNTAYLQLSSLTSEDTAVYYCASSYAMDYWGQGTSVTVSS VL: DVLMTQTPLSLPVSLGDQASISCRSSQSIVHSNGNTYLEWYLQKTGQSPELLIYKVSNRLSGVPDRFSGSGSGTDFTLKISRVEAEDLGVYYCFQGSHVPFTFGSGTKLEIK", "values": [
      {"measurement": "Reaction Pattern of mAb in ELISA, Human S100A6", "setting": "[1]", "value": "−"},
      {"measurement": "reaction with human S100A4 in Western-blot", "setting": "[2]", "value": "react with human S100A4"},
      {"measurement": "activity of MMP9 in the media", "setting": "[3]", "value": "completely reduced"},
      {"measurement": "tumor weight compared with the control group", "setting": "[4]", "value": "induced a decrease in tumor weight"},
      {"measurement": "S100A4 protein levels in plasma of treated animals (unbound to 5C3)", "setting": "[5]", "value": "blocks the totality of circulant S100A4 protein in plasma"},
      {"measurement": "Reaction Pattern of mAb in ELISA, Human S100A7", "setting": "[6]", "value": "−"}
    ]}
  ]
}
